{
  "source": "the nanobody polyreactivity screen of Harvey et al. (2022)",
  "data": [
    {"assay": "yeast display, Sf9 membrane polyspecificity reagent, FACS + sequencing; frameworks hold sequencing errors", "procedure,_shortened": "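After 36–48 hours of galactose induction, yeast (Saccharomyces cerevisiae BJ5465) displaying a synthetic nanobody library were stained at 4 °C for 1 hour with 10% biotinylated, detergent-solubilized Sf9 membrane reagent. Streptavidin microbeads enriched the stained cells before FACS sorting into low and high (top ~1%) gates on anti-HA and streptavidin fluorescence. Each clone's polyreactivity label reflects its gate of origin.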", "values": [
      {"sequence": "QVQLVESGGGLVQAGGSLRLSCAASGSIFVYYTMGWYRQAPGKERELVASITSGGNTNYADSVKGRFTISRDNAKNTVYLQMNSLKPEDTAVYYCAADYQTVTQADWGTVYDYDYWGQGTQVTVSS", "polyreactivity (PSR sort gate)": "low polyreactivity"},
      {"sequence": "QVQLVESGGGLVQAGGSLRLSCAASGSIFWANAKGWYRQAPGKERELVATITSGGRTYYADSVKGRFTISRDNAKNTVYLQMNSLKPEDTAVYYCARVPPQYRWGRRLVYVHVDYWGQGTQVTVSS", "polyreactivity (PSR sort gate)": "low polyreactivity"},
      {"sequence": "QVQLVESGGGLVQAGGSLRLSCAASGSIFWANAMGWYRQAPGKERELVASISSGGSTNYADSVKGRFTISRDNAKNTVYLQMNSLKPEDTAVYYCAADYSHSYIGYDYWGQGTQVTVSS", "polyreactivity (PSR sort gate)": "low polyreactivity"},
      {"sequence": "QVQLVESGGGLVQAGGSLRLSCAASGSIFWEYAMGWYRQAPGKDREFVATISARGGRTYYADSVKGRFTSSRDNAKNTVYLQMNSLKPDATAVYYCANVGVFHLRDNYRFDYWGQGTQVTVSS", "polyreactivity (PSR sort gate)": "low polyreactivity"},
      {"sequence": "QVQLVESGGGLVQAGGSLRLSCAASGSIFWFKAMGWYRQAPGKERELVATIRYSGGSTYYADSVKGRFTISRDNEKNTVYLQRNSMKPEDTAVYYCAADAVGDGHNDYWGLGTQVTVSS", "polyreactivity (PSR sort gate)": "high polyreactivity"},
      {"sequence": "QVQLVESGGGLVQAGGSLRLSCAASGSIFWIYAMVWSRQAPGKERELVAVISDRGARTYYADSVKGRFTLSRDNAKNTVYLQMNSLKPEDTAVYYCNADTRQARLQKMDSWGQGTQVTVSS", "polyreactivity (PSR sort gate)": "high polyreactivity"},
      {"sequence": "QVQLVESGGGLVQAGGSLRLSCAASGSIFWNYTMGWYRPAPGKERELVAAITWSGSSTYYADSVKGRFTISRDNAKNTVYLQMNSLKPEDTAVYYCAKDGSGTYEFDYWGQGTQVTVSS", "polyreactivity (PSR sort gate)": "low polyreactivity"},
      {"sequence": "QVQLVESGGGLVQAGGSLRLSCAASGSIFWRNAMGWYRQAPGKERELVAAITKTGASTYYADSVKGRFTISRDNAKNTVYLQMNSLKPEDTAVYYCAKDTRGRYAGSYRYDYCGQGTQVTVSS", "polyreactivity (PSR sort gate)": "low polyreactivity"},
      {"sequence": "QVQLVESGGGLVQAGGSLRLSCAASGSIFWRNAMGWYRQAPGKERELVAAITSGGSTYYADSVKGRFTISRDNAKNTVYLQMNSLNPEDTAVYYCAAGYSYRYGYWGQGTQVTVSS", "polyreactivity (PSR sort gate)": "low polyreactivity"},
      {"sequence": "QVQLVESGGGLVQAGGSLRLSCAASGSIFWSNAMGWYRQSPGKEREFVASISSSGSTNYADSVKGRFTISRDNAKNTVYLQMNSLKPEDTAVYYCNADGLYSYWYFWSSAYDYWGQGTQVTVSS", "polyreactivity (PSR sort gate)": "low polyreactivity"},
      {"sequence": "QVQLVESGGGLVQAGGSLRLSCAASGSIFWSYAMGWYRQAPGKEREFVAAITVSGGSTYYADSVKGRFTISRDNAKNTVYLQMNSLKPEDTAVFYCAARQLTAGGTDLDYWGQGTKVTVSS", "polyreactivity (PSR sort gate)": "low polyreactivity"},
      {"sequence": "QVQLVESGGGLVQAGGSLRLSCAASGSIFWSYAMGWYRQAPGKERELVAAITWSGGNTYADSVKGRFTISRDNAKNTVYLQMNSLTPEDTAVYYCAAYPAHGTKWYVYPSHDDYWGQGTQVNVSS", "polyreactivity (PSR sort gate)": "low polyreactivity"},
      {"sequence": "QVQLVESGGGLVQAGGSLRLSCAASGSIFWSYAMGWYRQAPGKERELVAAITYSGTSTYYADSVKGRFTISRDNAKNTVYLQMNSLKPEDTAVSYCAASPYSRSRYDYWGQGTQVTVSS", "polyreactivity (PSR sort gate)": "low polyreactivity"},
      {"sequence": "QVQLVESGGGLVQAGGSLRLSCAASGSIFWSYAMGWYRQAPGKERELVAVINWSGGSTYYADSVKGRFTISRDNAKNTVYLQMTSLKPEDTAVYYCNKDLGPTKRPFTFDYWGQGTQVTVSS", "polyreactivity (PSR sort gate)": "low polyreactivity"},
      {"sequence": "QVQLVESGGGLVQAGGSLRLSCAASGSIFWTNVMGWYRQAPGKERELVAAISYSDGSTYYADSVKGRFTISRDNAKNTVYLQMNSLKPEDTAVYYCAADQYYYWGGYDYWGQGTQVTVSS", "polyreactivity (PSR sort gate)": "low polyreactivity"},
      {"sequence": "QVQLVESGGGLVQAGGSLRLSCAASGSIFWYNAKGWYRQAPGKERELVAAINWGGGSTYYADSVKGRFTISRDNAKNTVYLEMNSLTPEDTAVYYCNADQQVDHATVSQRDGYDYWGQGTQVTVSS", "polyreactivity (PSR sort gate)": "low polyreactivity"},
      {"sequence": "QVQLVESGGGLVQAGGSLRLSCAASGSIFWYYAMGWYRQAPGKERELVAAIRRGGSTTYADSVKGRFTISRDNAKNTVYLQMNSLKPEDTAVYYCAAEPYYWYRGDYWGQGTQVTVSS", "polyreactivity (PSR sort gate)": "high polyreactivity"},
      {"sequence": "QVQLVESGGGLVQAGGSLRLSCAASGSIFWYYAMGWYRQAPGKERELVAAISSGGSTYYADSVKGRFTISRDNAKNTVYLQMNSLKPEDTAVYYCAAGAFGQILNYWGQGTQVTVSS", "polyreactivity (PSR sort gate)": "high polyreactivity"},
      {"sequence": "QVQLVESGGGLVQAGGSLRLSCAASGSIFWYYAMGWYRQAPGKERELVADITIRGGRTYYADSVKGRFTISRDNAKNTVYLQMNSLKPEDTAVYYCAADWEYWGFGLYDYWGQGTQVTVSS", "polyreactivity (PSR sort gate)": "low polyreactivity"},
      {"sequence": "QVQLVESGGGLVQAGGSLRLSCAASGSIFWYYAMGWYRQAPGKERELVASISSSGGSTYYADSVKGRFTISRDNAKNTVYLQMNSLKPEDTAVYYCAVRSPYRLSRWRVGYWGQGTQVTVSS", "polyreactivity (PSR sort gate)": "high polyreactivity"},
      {"sequence": "QVQLVESGGGLVQAGGSLRLSCAASGSIFWYYVMGWYRQAPGKERELVAAITFSGAGTYYADSVKGRFTISRDNAKNTVYLQMNSLKPEDTAVYYCAARWLGHFYPFFLQGLSGFDYWGQGTQVTVSS", "polyreactivity (PSR sort gate)": "low polyreactivity"},
      {"sequence": "QVQLVESGGGLVQAGGSLRLSCAASGSIFYANAMGWYRQAPAKERELVAAIRSGGSTNYADSVKGRFTISRDNAKKTVYLQMNSLKPEDTAVYYCAAVWRYWSGQKVGYWGQGTQVTVSS", "polyreactivity (PSR sort gate)": "high polyreactivity"},
      {"sequence": "QVQLVESGGGLVQAGGSLRLSCAASGSIFYANAMGWYRQAPGKERELVAAISWSGGRTYYADSVKGRFTISRDNAKNTVYLQMNSLKPEDTAVYYCNVLPLYLEYDYWGQGTQVTVSS", "polyreactivity (PSR sort gate)": "high polyreactivity"},
      {"sequence": "QVQLVESGGGLVQAGGSLRLSCAASGSIFYAYAMGWYRQAPGKEREFVAVISYSGGSTYYADSVKGRFTISRDNAKNTVYLQMNSLKPEDTAVYYCAARYRRPYSYYYWGQGTQVTVSS", "polyreactivity (PSR sort gate)": "high polyreactivity"},
      {"sequence": "QVQLVESGGGLVQAGGSLRLSCAASGSIFYAYAMGWYRQAPGKERELVAVISRGGITNYADSVKGRFTISRDNAKNTVYLQMNSMKPEDTAVYYCAAATSAWGYLRRYGYWGQGTQVTVSS", "polyreactivity (PSR sort gate)": "low polyreactivity"},
      {"sequence": "QVQLVESGGGLVQAGGSLRLSCAASGSIFYAYAMGWYRQAPGKESELVAVISRGGITNYADSVKGRFTISRDNAKNTVYLQMNSLKPEDTAVYYCAAATSAWGYLRRYGYWGQGTQVTVSS", "polyreactivity (PSR sort gate)": "low polyreactivity"},
      {"sequence": "QVQLVESGGGLVQAGGSLRLSCAASGSIFYDKAMGWYRQAPGKERELVAVISNSGRTYYADSVKGRFTISRDNAKNTVYLQMNSLKPEDTAVYYCWGQVTQVTVSS", "polyreactivity (PSR sort gate)": "low polyreactivity"},
      {"sequence": "QVQLVESGGGLVQAGGSLRLSCAASGSIFYDYMGWYRQAPGKERELVAVISYSGSSTYYADSVKGRFTISRDNAKNTVYLQMNSLKPEDTAVYYCAARNVNGWDYDYWGQGTQVTVSS", "polyreactivity (PSR sort gate)": "low polyreactivity"},
      {"sequence": "QVQLVESGGGLVQAGGSLRLSCAASGSIFYDYVMGWYRQAPGKERELVAAISVSGGRTYYADSVKGRFTISRDNAKNTVYLQMNSLKPEDTAVDYCAAKYPAGGRNYDYWGQGTQVTVSS", "polyreactivity (PSR sort gate)": "high polyreactivity"},
      {"sequence": "QVQLVESGGGLVQAGGSLRLSCAASGSIFYENTMGWYRQAPGKEREFVAAISRSGGSTYYADSEKGRFTISRDNAKNTVYLQMNSLKPEDTAVYYCAAKSRRYHHEYYYWGQGTQVTVSS", "polyreactivity (PSR sort gate)": "high polyreactivity"},
      {"sequence": "QVQLVESGGGLVQAGGSLRLSCAASGSIFYFNAMGWYRPAPGKERELVAAINISGSSTSYADSVKGRFTISRDNAKNTVYLQMNSLKPEDTAVYYCAAEDEPRILIVRVWDYYWGQGTQVTVSS", "polyreactivity (PSR sort gate)": "low polyreactivity"},
      {"sequence": "QVQLVESGGGLVQAGGSLRLSCAASGSIFYFNAMGWYRQAPGKERELVAAISTSGGSTYADSVKGRFTISRDNAKNTVYLQMNSLKPEDTAVYYCAADFLTSRSRTFDYWGQGTQVTVSS", "polyreactivity (PSR sort gate)": "low polyreactivity"},
      {"sequence": "QVQLVESGGGLVQAGGSLRLSCAASGSIFYFNAMGWYRQAPGKERELVAAITASGGRTYYADSVKGRFTISRDNAKNTVYLQMNSLKPEDTAVYYCNAYRPWSWWGEMDYWGQGTQVTVSS", "polyreactivity (PSR sort gate)": "high polyreactivity"},
      {"sequence": "QVQLVESGGGLVQAGGSLRLSCAASGSIFYFNAMGWYRQAPGKERELVADISWSGGESTYYADSVKGRFTISRDNAKNTVYLQMNSLKPEYTAVYYCAADYWSPYVYVYWGQGTQVTLSS", "polyreactivity (PSR sort gate)": "low polyreactivity"},
      {"sequence": "QVQLVESGGGLVQAGGSLRLSCAASGSIFYFNAMGWYRQAPGKERELVADITSGGSTYYADSVKGRFTISRDNAKNTVYLQMNSLKPEDTAVYYCNAALPVTRSERYGSDYWGQGTQVTVSS", "polyreactivity (PSR sort gate)": "low polyreactivity"},
      {"sequence": "QVQLVESGGGLVQAGGSLRLSCAASGSIFYGFDMGWYRQAPGKERELVATISWSSGSSTYYADTVKGRFTISRDNAKNTVYLQMNSLKPEETAVYYCAVDFAIGYRYQGRVDYWGQGTQVTVSS", "polyreactivity (PSR sort gate)": "low polyreactivity"},
      {"sequence": "QVQLVESGGGLVQAGGSLRLSCAASGSIFYGNAMGWYRQAPGNERESVAGITGSGSRTYYADSVKGRFTISRDNAKITVYLQMNSLKAEDTAVYYCARLTRTSRGLYDYWGQGTQVTVSS", "polyreactivity (PSR sort gate)": "high polyreactivity"},
      {"sequence": "QVQLVESGGGLVQAGGSLRLSCAASGSIFYGNTMGWYRQAPGKEREFVAAINKSDDSTYYADSVKGRFTISRDNAKNTVYLQMNSLKPEDTAVYYCAADYLGRFDYNYWGQGTQVTVSS", "polyreactivity (PSR sort gate)": "low polyreactivity"},
      {"sequence": "QVQLVESGGGLVQAGGSLRLSCAASGSIFYGNTMGWYRQAPGKERELVAGITRGGGSTYYADSVKGRFTISRDNAKNTVYLQMNSLKPEDTAVYYCAATFPYHDGDYWGQGTQVTVSS", "polyreactivity (PSR sort gate)": "low polyreactivity"},
      {"sequence": "QVQLVESGGGLVQAGGSLRLSCAASGSIFYGNVMGWYRQAPGKERELVAAISSSGGSTYYADSVKGRFTISRDTAKNTVYLQMNSLKPEDTAVYYCAAYWWSRVVRGSRYDYWGQGTQVTVSS", "polyreactivity (PSR sort gate)": "low polyreactivity"},
      {"sequence": "QVQLVESGGGLVQAGGSLRLSCAASGSIFYGYAMGWSRQAPGKERELVAVITDGGGSTYYADSVKGRFTISRDNAKNTVYLQMNSLKPEDTAVYYCAADSWGPYYYSSYSYDYWGQGTQVTVSS", "polyreactivity (PSR sort gate)": "low polyreactivity"},
      {"sequence": "QVQLVESGGGLVQAGGSLRLSCAASGSIFYGYAMGWYIQAPGKERELVAAISGNGGSTYFADSVKGRFTISRDNAKNTVYLQMNSLKTEDTAVYYCAVEVYHYGYEYDYWGQGTQVTVSS", "polyreactivity (PSR sort gate)": "high polyreactivity"},
      {"sequence": "QVQLVESGGGLVQAGGSLRLSCAASGSIFYGYAMGWYRPAPGKERELVAAISSGGRTYYADSVKGRFTISRDNAKNTVYLQMNSLKPEDTAVYHCAASYWKPHRESGYDYWGQGTQVTVSS", "polyreactivity (PSR sort gate)": "high polyreactivity"}
    ]}
  ]
}
